Values quoted from earlier work as cited in PMC3789827.

How the values were obtained:
[1] = target: BMPR1A ECD (Homo sapiens) (UniProt P36894); assay: SPR (Biacore)
[2] = target: BMPR1B ECD (Homo sapiens) (UniProt O00238); assay: SPR (Biacore)
Sequence of BMPR1B ECD (Homo sapiens) (O00238 14-126): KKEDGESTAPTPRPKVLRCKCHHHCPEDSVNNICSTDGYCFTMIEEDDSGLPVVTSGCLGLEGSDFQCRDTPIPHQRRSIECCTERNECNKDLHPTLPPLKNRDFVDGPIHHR

Sequence of GDF5 (P43026 382-501): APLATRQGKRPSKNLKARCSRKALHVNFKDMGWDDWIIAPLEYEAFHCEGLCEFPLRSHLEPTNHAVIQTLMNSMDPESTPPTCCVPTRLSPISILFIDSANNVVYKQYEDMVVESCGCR
Sequence of BMPR1A ECD (Homo sapiens) (P36894 24-152): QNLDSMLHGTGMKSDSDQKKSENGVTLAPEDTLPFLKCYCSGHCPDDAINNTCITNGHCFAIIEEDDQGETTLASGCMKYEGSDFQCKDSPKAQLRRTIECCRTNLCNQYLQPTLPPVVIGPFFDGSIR

In the case of GDF5 (from UniProt P43026), the Kd [1] is listed as 17 nM and the Kd [2] is listed as 1.1 nM.
